What was measured:
HeLa Kyoto [1] = assay: solubility in G1/S (NP-40 vs SDS abundance) (log2 ratio); higher = more soluble; conditions: cell cycle stage: G1/S
HeLa Kyoto [2] = assay: melting temperature (median over replicates), in situ; higher = more thermally stable
HeLa Kyoto [3] = assay: solubility change mitosis vs G1/S (difference of NP-40 vs SDS log2 ratios) (log2 ratio difference); higher = more soluble in mitosis
HeLa Kyoto [4] = assay: thermal stability score vs G1/S (z-score of summed log2 fold changes over temperatures); higher = more thermally stable than in G1/S
[5] = cell cycle stage: early G1 (4.5 h after nocodazole release)
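Wherever melting temperature (median over replicates), in situ is given: HeLa Kyoto cells synchronized by double thymidine or nocodazole block, proteins quantified by TMT10plex mass spectrometry, three independent biological replicates.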
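Wherever solubility change mitosis vs G1/S (difference of NP-40 vs SDS log2 ratios) is given: synchronized HeLa Kyoto cells (double thymidine block for G1/S, nocodazole release for mitosis), protein amounts in NP-40 versus SDS lysates quantified by mass spectrometry, three biological replicates.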
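Wherever solubility in G1/S (NP-40 vs SDS abundance) is given: HeLa Kyoto cells arrested at G1/S by double thymidine block, proteins quantified by TMT10plex mass spectrometry in mild NP-40 versus SDS extracts, three biological replicates.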
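Wherever thermal stability score vs G1/S (z-score of summed log2 fold changes over temperatures) is given: synchronized HeLa Kyoto cells, proteins quantified by TMT10plex mass spectrometry, three biological replicates, mitosis taken 0.5 h after nocodazole release, G1/S directly after double thymidine block.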

Chain of IRF2BPL (chain, as listed by the source): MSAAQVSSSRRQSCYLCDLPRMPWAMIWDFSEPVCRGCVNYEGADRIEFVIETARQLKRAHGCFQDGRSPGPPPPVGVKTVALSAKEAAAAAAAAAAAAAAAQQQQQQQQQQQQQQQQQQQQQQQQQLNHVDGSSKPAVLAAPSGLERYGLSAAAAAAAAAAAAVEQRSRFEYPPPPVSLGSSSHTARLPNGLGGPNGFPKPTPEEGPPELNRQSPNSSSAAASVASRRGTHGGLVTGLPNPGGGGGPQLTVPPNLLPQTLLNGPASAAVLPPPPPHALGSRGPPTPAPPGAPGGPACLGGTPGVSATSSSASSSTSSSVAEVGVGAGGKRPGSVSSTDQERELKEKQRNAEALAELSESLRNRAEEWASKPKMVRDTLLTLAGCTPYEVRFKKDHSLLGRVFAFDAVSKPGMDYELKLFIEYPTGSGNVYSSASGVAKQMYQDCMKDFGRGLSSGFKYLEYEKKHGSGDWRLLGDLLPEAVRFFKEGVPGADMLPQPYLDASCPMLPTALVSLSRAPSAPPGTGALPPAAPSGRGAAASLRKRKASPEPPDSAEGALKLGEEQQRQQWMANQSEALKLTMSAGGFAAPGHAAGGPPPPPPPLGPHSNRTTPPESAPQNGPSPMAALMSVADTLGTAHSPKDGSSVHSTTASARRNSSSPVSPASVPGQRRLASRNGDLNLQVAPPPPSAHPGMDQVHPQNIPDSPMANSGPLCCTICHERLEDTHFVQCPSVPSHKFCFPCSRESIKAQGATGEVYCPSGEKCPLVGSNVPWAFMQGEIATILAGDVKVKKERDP
Chain of SOX13 (chain, as listed by the source): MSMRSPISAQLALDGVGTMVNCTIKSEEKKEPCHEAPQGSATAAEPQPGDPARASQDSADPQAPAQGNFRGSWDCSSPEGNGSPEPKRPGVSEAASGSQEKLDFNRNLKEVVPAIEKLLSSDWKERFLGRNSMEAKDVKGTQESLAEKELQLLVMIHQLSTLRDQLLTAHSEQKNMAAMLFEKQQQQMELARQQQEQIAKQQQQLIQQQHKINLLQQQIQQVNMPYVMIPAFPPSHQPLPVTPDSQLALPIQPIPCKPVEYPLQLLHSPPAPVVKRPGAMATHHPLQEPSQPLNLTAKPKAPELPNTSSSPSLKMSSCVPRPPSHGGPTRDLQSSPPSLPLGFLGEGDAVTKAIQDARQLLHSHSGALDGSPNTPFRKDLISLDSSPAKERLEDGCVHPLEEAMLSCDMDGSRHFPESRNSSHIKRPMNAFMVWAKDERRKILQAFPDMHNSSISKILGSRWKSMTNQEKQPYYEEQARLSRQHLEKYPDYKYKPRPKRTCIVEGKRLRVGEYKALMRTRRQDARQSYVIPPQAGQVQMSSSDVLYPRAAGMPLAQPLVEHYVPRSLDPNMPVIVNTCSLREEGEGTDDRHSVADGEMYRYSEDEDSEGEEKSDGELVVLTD
Chain of WWP2 (chain, as listed by the source): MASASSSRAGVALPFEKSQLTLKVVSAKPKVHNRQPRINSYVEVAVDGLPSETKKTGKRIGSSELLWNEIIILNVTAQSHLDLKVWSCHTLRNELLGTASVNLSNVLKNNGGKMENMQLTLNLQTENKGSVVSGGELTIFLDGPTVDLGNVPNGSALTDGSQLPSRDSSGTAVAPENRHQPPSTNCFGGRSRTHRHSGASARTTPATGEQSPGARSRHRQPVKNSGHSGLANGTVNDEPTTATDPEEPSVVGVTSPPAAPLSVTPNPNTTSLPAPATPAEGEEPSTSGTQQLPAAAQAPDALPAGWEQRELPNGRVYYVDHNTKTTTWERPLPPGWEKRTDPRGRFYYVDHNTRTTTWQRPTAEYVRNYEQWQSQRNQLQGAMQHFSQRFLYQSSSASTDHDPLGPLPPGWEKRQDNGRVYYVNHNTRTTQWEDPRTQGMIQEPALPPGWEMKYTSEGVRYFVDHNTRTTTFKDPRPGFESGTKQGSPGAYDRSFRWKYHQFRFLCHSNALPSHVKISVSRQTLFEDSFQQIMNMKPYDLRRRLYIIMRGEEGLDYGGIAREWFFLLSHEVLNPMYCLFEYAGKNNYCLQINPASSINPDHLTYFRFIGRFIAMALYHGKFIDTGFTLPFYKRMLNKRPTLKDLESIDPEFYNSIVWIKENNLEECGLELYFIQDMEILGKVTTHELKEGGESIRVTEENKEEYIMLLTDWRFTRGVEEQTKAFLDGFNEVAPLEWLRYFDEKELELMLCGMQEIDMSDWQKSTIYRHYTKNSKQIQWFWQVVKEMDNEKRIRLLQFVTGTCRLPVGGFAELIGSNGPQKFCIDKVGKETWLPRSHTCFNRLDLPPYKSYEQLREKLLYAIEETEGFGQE
Chain of HAUS7 (chain, as listed by the source): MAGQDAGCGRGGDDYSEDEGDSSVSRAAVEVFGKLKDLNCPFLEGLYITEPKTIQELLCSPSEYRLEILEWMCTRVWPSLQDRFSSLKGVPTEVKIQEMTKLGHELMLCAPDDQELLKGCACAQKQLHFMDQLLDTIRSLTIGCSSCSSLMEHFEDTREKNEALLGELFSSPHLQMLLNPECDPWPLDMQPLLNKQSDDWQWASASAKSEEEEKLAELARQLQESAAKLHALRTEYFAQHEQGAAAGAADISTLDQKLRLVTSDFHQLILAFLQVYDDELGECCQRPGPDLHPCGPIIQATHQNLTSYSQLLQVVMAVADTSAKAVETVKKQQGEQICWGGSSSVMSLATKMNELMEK

Substance	solubility in G1/S (log2) (HeLa Kyoto [1])	melting temperature (HeLa Kyoto [2]; cell cycle stage: G1/S) [°C]	melting temperature (HeLa Kyoto [2]; cell cycle stage: mitosis) [°C]	solubility change mitosis (log2) (HeLa Kyoto [3])	thermal stability score (HeLa Kyoto [4]; [5])	thermal stability score (HeLa Kyoto [4]; cell cycle stage: mitosis)
BAZ2A	-0.382	48.3	49.6	0.217		
DLG5	-0.385		47.5	0.289		
HAUS7	0.51	50.7		-0.0535		
IRF2BPL	0.519	50	50.9	-0.131		
KANSL3	0.155		48.6	0.061		
MAAAAPNAGGSAPETAGSAEAPLQYSLLLQYLVGDKRQPRLLEPGSLGGIPSPAKSEEQKMIEKAMESCAFKAALACVGGFVLGGAFGVFTAGIDTNVGFDPKDPYRTPTAKEVLKDMGQRGMSYAKNFAIVGAMFSCTECLIESYRGTSDWKNSVISGCITGGAIGFRAGLKAGAIGCGGFAAFSAAIDYYLR [TIMM22]	0.0827	56	56.3	-0.0464		
MAAATIVHDTSEAVELCPAYGLYLKPITKMTISVALPQLKQPGKSISNWEVMERLKGMVQNHQFSTLRISKSTMDFIRFEGEVENKSLVKSFLACLDGKTIKLSGFSDILKVRAAEFKIDFPTRHDWDSFFRDAKDMNETLPGERPDTIHLEGLPCKWFALKESGSEKPSEDVLVKVFEKFGEIRNVDIPMLDPYREEMTGRNFHTFSFGGHLNFEAYVQYREYMGFIQAMSALRGMKLMYKGEDGKAVACNIKVSFDSTKHLSDASIKKRQLERQKLQELEQQREEQKRREKEAEERQRAEERKQKELEELERERKREEKLRKREQKQRDRELRRNQKKLEKLQAEEQKQLQEKIKLEERKLLLAQRNLQSIRLIAELLSRAKAVKLREQEQKEEKLRLQQQEERRRLQEAELRRVEEEKERALGLQRKERELRERLLSILLSKKPDDSHTHDELGVAHADLLQPVLDILQTVSSGCVSATTLHPLGGQPPAGAPKESPAHPEADGAPKSVNGSVAEEAPCKEVQSSCRVVPEDGSPEKRCPGGVLSCIPDNNQQPKGIPACEQNVSRKDTRSEQDKCNREPSKGRGRATGDGLADRHKRERSRARRASSREDGRPRKERRPHKKHAYKDDSPRRRSTSPDHTRSRRSHSKDRHRRERSRERRGSASRKHSRHRRRSERSRSRSPSRHRSTWNR [AKAP17A]	-1.06	47	49.2	0.521		
MAADVSVTHRPPLSPKSGAEVEAGDAAERRAPEEELPPLDPEEIRKRLEHTERQFRNRRKILIRGLPGDVTNQEVHDLLSDYELKYCFVDKYKGTAFVTLLNGEQAEAAINAFHQSRLRERELSVQLQPTDALLCVANLPPSLTQQQFEELVRPFGSLERCFLVYSERTGQSKGYGFAEYMKKDSAARAKSDLLGKPLGPRTLYVHWTDAGQLTPALLHSRCLCVDRLPPGFNDVDALCRALSAVHSPTFCQLACGQDGQLKGFAVLEYETAEMAEEAQQQADGLSLGGSHLRVSFCAPGPPGRSMLAALIAAQATALNRGKGLLPEPNILQLLNNLGPSASLQLLLNPLLHGSAGGKQGLLGAPPAMPLLNGPALSTALLQLALQTQGQKKPGILGDSPLGALQPGAQPANPLLGELPAGGGLPPELPPRRGKPPPLLPSVLGPAGGDREALGLGPPAAQLTPPPAPVGLRGSGLRGPLSHFYSGSPTSYFTSGLQAGLKQSHLSKAIGSSPLGSGEGLLGLSPGPNGHSHLLKVRAGGGDMQGWEAPAPQRPLTRPALPSVSRPHWAARNAALPTCCPRPSPAQKAAMWASTPRASAATTRTPT [RAVER1]	0.344	46.3	48.9	0.165		
MAALGRPFSGLPLSGGSDFLQPPQPAFPGRAFPPGADGAELAPRPGPRAVPSSPAGSAARGRVSVHCKKKHKREEEEDDDCPVRKKRITEAELCAGPNDWILCAHQDVEGHGVNPSVSGLSIPGILDVICEEMDQTTGEPQCEVARRKLQEIEDRIIDEDEEVEADRNVNHLPSLVLSDTMKTGLKREFDEVFTKKMIESMSRPSMELVLWKPLPELLSDKPKPSSNTKNYTGESQAKHVAAGTAFPQRTELFSEPRPTGMSLYNSLETATSTEEEMEL [CCDC117]	0.515	51.6	53.2	0.183		
MAAQPPRGIRLSALCPKFLHTNSTSHTWPFSAVAELIDNAYDPDVNAKQIWIDKTVINDHICLTFTDNGNGMTSDKLHKMLSFGFSDKVTMNGHVPVGLYGNGFKSGSMRLGKDAIVFTKNGESMSVGLLSQTYLEVIKAEHVVVPIVAFNKHRQMINLAESKASLAAILEHSLFSTEQKLLAELDAIIGKKGTRIIIWNLRSYKNATEFDFEKDKYDIRIPEDLDEITGKKGYKKQERMDQIAPESDYSLRAYCSILYLKPRMQIILRGQKVKTQLVSKSLAYIERDVYRPKFLSKTVRITFGFNCRNKDHYGIMMYHRNRLIKAYEKVGCQLRANNMGVGVVGIIECNFLKPTHNKQDFDYTNEYRLTITALGEKLNDYWNEMKVKKNTEYPLNLPVEDIQKRPDQTWVQCDACLKWRKLPDGMDQLPEKWYCSNNPDPQFRNCEVPEEPEDEDLVHPTYEKTYKKTNKEKFRIRQPEMIPRINAELLFRPTALSTPSFSSPKESVPRRHLSEGTNSYATRLLNNHQVPPQSEPESNSLKRRLSTRSSILNAKNRRLSSQFENSVYKGDDDDEDVIILEENSTPKPAVDHDIDMKSEQSHVEQGGVQVEFVGDSEPCGQTGSTSTSSSRCDQGNTAATQTEVPSLVVKKEETVEDEIDVRNDAVILPSCVEAEAKIHETQETTDKSADDAGCQLQELRNQLLLVTEEKENYKRQCHMFTDQIKVLQQRILEMNDKYVKKETCHQSTETDAVFLLESINGKSESPDHMVSQYQQALEEIERLKKQCSALQHVKAECSQCSNNESKSEMDEMAVQLDDVFRQLDKCSIERDQYKSEVELLEMEKSQIRSQCEELKTEVEQLKSTNQQTATDVSTSSNIEESVNHMDGESLKLRSLRVNVGQLLAMIVPDLDLQQVNYDVDVVDEILGQVVEQMSEISST [MORC3]	-0.0527	48.7	49.6	-0.206		
MTVEQNVLQQSAAQKHQQTFLNQLREITGINDTQILQQALKDSNGNLELAVAFLTAKNAKTPQQEETTYYQTALPGNDRYISVGSQADTNVIDLTGDDKDDLQRAIALSLAESNRAFRETGITDEEQAISRVLEASIAENKACLKRTPTEVWRDSRNPYDRKRQDKAPVGLKNVGNTCWFSAVIQSLFNLLEFRRLVLNYKPPSNAQDLPRNQKEHRNLPFMRELRYLFALLVGTKRKYVDPSRAVEILKDAFKSNDSQQQDVSEFTHKLLDWLEDAFQMKAEEETDEEKPKNPMVELFYGRFLAVGVLEGKKFENTEMFGQYPLQVNGFKDLHECLEAAMIEGEIESLHSENSGKSGQEHWFTELPPVLTFELSRFEFNQALGRPEKIHNKLEFPQVLYLDRYMHRNREITRIKREEIKRLKDYLTVLQQRLERYLSYGSGPKRFPLVDVLQYALEFASSKPVCTSPVDDIDASSPPSGSIPSQTLPSTTEQQGALSSELPSTSPSSVAAISSRSVIHKPFTQSRIPPDLPMHPAPRHITEEELSVLESCLHRWRTEIENDTRDLQESISRIHRTIELMYSDKSMIQVPYRLHAVLVHEGQANAGHYWAYIFDHRESRWMKYNDIAVTKSSWEELVRDSFGGYRNASAYCLMYINDKAQFLIQEEFNKETGQPLVGIETLPPDLRDFVEEDNQRFEKELEEWDAQLAQKALQEKLLASQKLRESETSVTTAQAAGDPEYLEQPSRSDFSKHLKEETIQIITKASHEHEDKSPETVLQSAIKLEYARLVKLAQEDTPPETDYRLHHVVVYFIQNQAPKKIIEKTLLEQFGDRNLSFDERCHNIMKVAQAKLEMIKPEEVNLEEYEEWHQDYRKFRETTMYLIIGLENFQRESYIDSLLFLICAYQNNKELLSKGLYRGHDEELISHYRRECLLKLNEQAAELFESGEDREVNNGLIIMNEFIVPFLPLLLVDEMEEKDILAVEDMRNRWCSYLGQEMEPHLQEKLTDFLPKLLDCSMEIKSFHEPPKLPSYSTHELCERFARIMLSLSRTPADGR [USP25]	0.123			-0.00837	-0.404	0.0462
MVQKYQSPVRVYKYPFELIMAAYERRFPTCPLIPMFVGSDTVNEFKSEDGAIHVIERRCKLDVDAPRLLKKIAGVDYVYFVQKNSLNSRERTLHIEAYNETFSNRVIINEHCCYTVHPENEDWTCFEQSASLDIKSFFGFESTVEKIAMKQYTSNIKKGKEIIEYYLRQLEEEGITFVPRWSPPSITTSSETSSSSSKKQAASMAVVIPEAALKEGLSGDALSSPSAPEPVVGTPDDKLDADYIKRYLGDLTPLQESCLIRLRQWLQETHKGKIPKDEHILRFLRARDFNIDKAREIMCQSLTWRKQHQVDYILETWTPPQVLQDYYAGGWHHHDKDGRPLYVLRLGQMDTKGLVRALGEEALLRYVLSINEEGLRRCEENTKVFGRPISSWTCLVDLEGLNMRHLWRPGVKALLRIIEVVEANYPETLGRLLILRAPRVFPVLWTLVSPFIDDNTRRKFLIYAGNDYQGPGGLLDYIDKEIIPDFLSGECMCEVPEGGLVPKSLYRTAEELENEDLKLWTETIYQSASVFKGAPHEILIQIVDASSVITWDFDVCKGDIVFNIYHSKRSPQPPKKDSLGAHSITSPGGNNVQLIDKVWQLGRDYSMVESPLICKEGESVQGSHVTRWPGFYILQWKFHSMPACAASSLPRVDDVLASLQVSSHKCKVMYYTEVIGSEDFRGSMTSLESSHSGFSQLSAATTSSSQSHSSSMISR [SEC14L1]	-0.0916			-0.126	-0.528	0.106
MWKRSEQMKIKSGKCNMAAAMETEQLGVEIFETADCEENIESQDRPKLEPFYVERYSWSQLKKLLADTRKYHGYMMAKAPHDFMFVKRNDPDGPHSDRIYYLAMSGENRENTLFYSEIPKTINRAAVLMLSWKPLLDLFQATLDYGMYSREEELLRERKRIGTVGIASYDYHQGSGTFLFQAGSGIYHVKDGGPQGFTQQPLRPNLVETSCPNIRMDPKLCPADPDWIAFIHSNDIWISNIVTREERRLTYVHNELANMEEDARSAGVATFVLQEEFDRYSGYWWCPKAETTPSGGKILRILYEENDESEVEIIHVTSPMLETRRADSFRYPKTGTANPKVTFKMSEIMIDAEGRIIDVIDKELIQPFEILFEGVEYIARAGWTPEGKYAWSILLDRSQTRLQIVLISPELFIPVEDDVMERQRLIESVPDSVTPLIIYEETTDIWINIHDIFHVFPQSHEEEIEFIFASECKTGFRHLYKITSILKESKYKRSSGGLPAPSDFKCPIKEEIAITSGEWEVLGRHGSNIQVDEVRRLVYFEGTKDSPLEHHLYVVSYVNPGEVTRLTDRGYSHSCCISQHCDFFISKYSNQKNPHCVSLYKLSSPEDDPTCKTKEFWATILDSAGPLPDYTPPEIFSFESTTGFTLYGMLYKPHDLQPGKKYPTVLFIYGGPQVQLVNNRFKGVKYFRLNTLASLGYVVVVIDNRGSCHRGLKFEGAFKYKMGQIEIDDQVEGLQYLASRYDFIDLDRVGIHGWSYGGYLSLMALMQRSDIFRVAIAGAPVTLWIFYDTGYTERYMGHPDQNEQGYYLGSVAMQAEKFPSEPNRLLLLHGFLDENVHFAHTSILLSFLVRAGKPYDLQIYPQERHSIRVPESGEHYELHLLHYLQENLGSRIAALKVI [DPP8]	-0.288			-0.0129	-0.204	0.0056
SOX13	0.191			0.0877	0.734	0.151
TNS1	-0.0779			0.117	0.323	1.79
WWP2	-0.136			-0.0544	0.284	-1.96
